Results on one molecule are retold here after patent publication US20240025965A1 (UNIVERSITEIT TWENTE, published 2024).

Where no end group is shown, it is not given here.

In assay [1] the target is T1, rhIntegrin α11β1 (human, UniProt Q9UKX5 23-1141; P05556 21-728, limits assumed).
T1 construct: Bought from R&D Systems; also called α11β1 receptor; ITGA11 receptor
Nature of the assay: microscale thermophoresis, 1 µM labelled peptide, receptor titrated, in solution. How it is done: (§1) Fluorescent labeled peptide (AV3-PEG(6)-5FAM or AXI-I-PEG(6)-FITC) (1 μM) was incubated with different concentrations of a human recombinant receptor (i.e., α5β1, α11β1 or αvβ3) for 10 minutes in Eppendorf tubes. The mixture of peptide and receptor was loaded in to NT.115™ hydrophilic glass capillaries. In order to find the best thermophoretic setting, the binding of peptide to the target receptor was examined at low (20%), middle (40%), and high (80%) MST power and all other binding experiments were performed using the same MST-settings. Finally, the dissociation constant (Kd) value was calculated from an average of three experiments.
(§2) Fluorescent labeled peptides (AV3-PEG(6)-5FAM and AXI-I-PEG(6)-FITC) were examined for their binding affinities against α5β1 and α11β1 receptors, respectively using microscale thermophoresis (MST). MST allows peptides to interact with the receptors in solution phase. These peptides were also exposed to an irrelevant receptor of the integrin family αvβ3 and MST analyses were performed.

In assay [2] the target is T2, ITGA11 on human stellate cells (LX2 hepatic stellate cells; primary pancreatic stellate cells) (human, UniProt Q9UKX5 23-1188).
T2 construct: whole, on cells; For the pancreatic stellate cells the target is only implied; also called ITGA11-expressing hepatic stellate cells; ITGA11 expressing LX2 cells
T2 sequence (looked up): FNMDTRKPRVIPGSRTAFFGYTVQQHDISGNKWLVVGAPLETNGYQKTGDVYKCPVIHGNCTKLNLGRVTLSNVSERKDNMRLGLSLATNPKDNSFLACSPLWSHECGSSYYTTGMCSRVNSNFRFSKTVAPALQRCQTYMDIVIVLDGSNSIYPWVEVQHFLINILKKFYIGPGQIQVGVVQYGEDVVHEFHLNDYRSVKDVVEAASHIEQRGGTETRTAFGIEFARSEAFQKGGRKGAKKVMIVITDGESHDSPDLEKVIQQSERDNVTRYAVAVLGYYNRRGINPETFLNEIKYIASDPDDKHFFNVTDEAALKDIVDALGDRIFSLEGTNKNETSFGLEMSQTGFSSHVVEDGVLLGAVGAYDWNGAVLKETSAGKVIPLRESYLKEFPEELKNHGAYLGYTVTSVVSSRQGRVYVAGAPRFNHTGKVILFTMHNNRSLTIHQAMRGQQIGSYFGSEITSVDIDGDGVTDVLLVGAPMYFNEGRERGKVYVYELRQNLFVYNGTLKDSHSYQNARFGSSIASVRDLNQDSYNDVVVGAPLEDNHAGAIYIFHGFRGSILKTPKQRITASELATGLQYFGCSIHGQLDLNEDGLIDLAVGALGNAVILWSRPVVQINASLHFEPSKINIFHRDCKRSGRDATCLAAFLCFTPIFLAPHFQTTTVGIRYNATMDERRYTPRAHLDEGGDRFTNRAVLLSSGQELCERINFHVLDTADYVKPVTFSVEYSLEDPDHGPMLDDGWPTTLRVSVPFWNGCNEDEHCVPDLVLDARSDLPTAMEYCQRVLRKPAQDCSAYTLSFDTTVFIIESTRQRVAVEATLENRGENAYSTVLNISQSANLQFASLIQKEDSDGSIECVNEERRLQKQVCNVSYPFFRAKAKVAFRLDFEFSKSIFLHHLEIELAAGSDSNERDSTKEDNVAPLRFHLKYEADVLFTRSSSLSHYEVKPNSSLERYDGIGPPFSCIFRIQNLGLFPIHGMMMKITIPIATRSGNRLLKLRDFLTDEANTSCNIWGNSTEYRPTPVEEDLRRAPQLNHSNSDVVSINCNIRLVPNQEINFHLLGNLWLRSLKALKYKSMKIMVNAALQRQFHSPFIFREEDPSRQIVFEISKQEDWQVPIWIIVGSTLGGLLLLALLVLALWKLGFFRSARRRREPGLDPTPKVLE
Briefly: flow cytometry on suspended primary human pancreatic stellate cells, 1 hour at 4° C.; whole-cell binding on suspended primary human pancreatic stellate cells, 1 hour at 4° C., flow cytometry; PEG- and FITC-modified peptide. How it is done:
(§3) PSCs were trypsinized using trypsin-EDTA solution and cell numbers were diluted to 4×10⁴ cells/ml. Cells were incubated at 37° C. for 30 minutes to allow receptor recovery. Then different concentrations of AXI-I-FITC was added to the cells containing 2% FBS and incubated at 4° C. for 60 minutes. Thereafter, cells were centrifuged at 1500 rpm at 4° C. for 10 minutes. Supernatant was removed and cells were washed 3 times with PBS and then were fixed with 0.5% formaldehyde for 1 hour at 4° C. and measured with flow cytometry for fluorescence.
(§4) Different concentrations of AXI-I-PEG-FITC was incubated with suspended PSCs for 1 hour at 4° C., washed and fixed with 0.5% formaldehyde and measured with flow cytometry. […] The 50% of the total binding, i.e., dissociation constant (kd) value was approximately 1 uM. Since the peptide has been modified with PEG chain and a fluorophore, the binding affinity of the peptide may be reduced due to steric hindrance.

The target of assay [3] is T3, α5β1 human recombinant protein (human, UniProt P08648 42-995; P05556 21-728).
T3 construct: Bought from R&D Systems; also called α5β1 receptor; integrin α5β1
Briefly: FITC-labelled peptide on coated α5β1 receptor in a 96-well plate, fluorescence intensity. How it is done:
Purified ITGA11 receptor (α11β1; 100 μg/ml—stock; R&D systems) was diluted to 5 μg/ml with 1×PBS. 96-well ELISA White Maxisorb plate (Nunc) was coated with 50 μl of 5 μg/ml ITGA11 (or as control α5β1) receptor for overnight at 4° C. Then, wells were blocked for 3-4 hours with 200 μl of blocking buffer (1×PBS containing 5% BSA). Wells were washed three times with 200 μl of washing buffer (1×PBS containing 0.5% BSA and 0.05% TWEEN®-20). Peptides conjugated with FITC were diluted to different concentrations in washing buffer and then added to the plate and incubated at 37° C. for 1 hour. In addition, the binding of the peptide was blocked by co-incubation with 10× higher amount of unlabeled peptide. Subsequently, wells were washed three times with washing buffer. Then, 100 μl of 1×PBS was added and plates were read at 485 nm/520 nm with a fluorescence plate reader.

Assay [4] addresses T2, ITGA11 on human stellate cells (LX2 …). Nature of the assay: flow cytometry of AXI-I-PEG-FITC on suspended primary human pancreatic stellate cells, 1 hour at 4 °C. As to the method:
as §3, §4

The target in assay [5] is T4, human recombinant receptor αvβ3 (human, UniProt P06756 31-992; P05106 27-718, limits assumed).
T4 construct: also called irrelevant receptor of the integrin family
Nature of the assay: microscale thermophoresis, 1 µM labelled peptide. How it is done:
as §1, §2

T3 sequence (P08648 42-995 limits assumed, chain 1 of 2): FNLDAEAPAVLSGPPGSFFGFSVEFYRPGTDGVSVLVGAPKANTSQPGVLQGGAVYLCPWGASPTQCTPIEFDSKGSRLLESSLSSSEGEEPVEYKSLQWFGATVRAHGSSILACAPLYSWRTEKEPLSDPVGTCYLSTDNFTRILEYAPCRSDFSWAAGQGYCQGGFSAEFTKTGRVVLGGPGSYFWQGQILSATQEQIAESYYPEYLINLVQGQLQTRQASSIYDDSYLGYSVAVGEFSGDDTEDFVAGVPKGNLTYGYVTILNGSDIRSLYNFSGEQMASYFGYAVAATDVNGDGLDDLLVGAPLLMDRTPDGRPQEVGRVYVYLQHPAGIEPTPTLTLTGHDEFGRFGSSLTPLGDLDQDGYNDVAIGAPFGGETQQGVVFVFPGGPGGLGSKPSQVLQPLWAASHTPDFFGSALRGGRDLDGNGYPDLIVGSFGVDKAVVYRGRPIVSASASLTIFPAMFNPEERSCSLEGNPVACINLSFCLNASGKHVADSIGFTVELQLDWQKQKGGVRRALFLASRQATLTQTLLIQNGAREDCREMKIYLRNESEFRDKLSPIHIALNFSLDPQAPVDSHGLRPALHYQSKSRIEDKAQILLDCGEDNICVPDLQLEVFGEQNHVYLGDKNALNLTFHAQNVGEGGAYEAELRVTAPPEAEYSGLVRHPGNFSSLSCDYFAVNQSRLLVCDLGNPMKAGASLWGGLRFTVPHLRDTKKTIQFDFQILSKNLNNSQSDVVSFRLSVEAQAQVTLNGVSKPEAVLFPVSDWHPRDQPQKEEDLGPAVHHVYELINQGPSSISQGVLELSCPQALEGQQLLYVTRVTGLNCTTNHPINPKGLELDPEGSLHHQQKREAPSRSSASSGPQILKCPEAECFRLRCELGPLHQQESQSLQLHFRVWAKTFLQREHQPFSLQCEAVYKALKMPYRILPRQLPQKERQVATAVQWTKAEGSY
T3 sequence (P05556 21-728 limits assumed, chain 2 of 2): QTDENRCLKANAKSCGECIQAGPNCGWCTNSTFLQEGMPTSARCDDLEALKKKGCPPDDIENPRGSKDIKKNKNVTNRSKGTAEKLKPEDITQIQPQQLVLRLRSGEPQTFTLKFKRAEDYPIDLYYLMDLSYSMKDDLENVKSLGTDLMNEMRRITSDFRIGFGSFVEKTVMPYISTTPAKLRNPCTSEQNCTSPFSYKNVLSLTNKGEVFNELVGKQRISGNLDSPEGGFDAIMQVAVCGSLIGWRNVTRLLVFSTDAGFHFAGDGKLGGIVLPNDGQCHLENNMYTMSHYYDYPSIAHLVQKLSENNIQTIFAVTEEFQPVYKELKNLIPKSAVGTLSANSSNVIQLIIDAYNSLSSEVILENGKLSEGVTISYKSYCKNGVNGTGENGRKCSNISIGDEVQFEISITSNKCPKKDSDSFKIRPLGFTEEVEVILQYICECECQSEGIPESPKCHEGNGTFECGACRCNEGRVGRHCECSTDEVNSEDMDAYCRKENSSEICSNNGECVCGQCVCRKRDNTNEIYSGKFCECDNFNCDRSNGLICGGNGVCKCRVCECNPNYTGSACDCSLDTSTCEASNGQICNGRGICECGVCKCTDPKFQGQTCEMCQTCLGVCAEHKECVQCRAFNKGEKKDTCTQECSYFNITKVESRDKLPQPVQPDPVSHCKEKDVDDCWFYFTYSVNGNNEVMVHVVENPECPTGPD
T1 sequence (P05556 21-728 limits assumed, one chain of several): as the sequence (P05556 21-728 limits assumed, chain 2 of 2) above
T4 sequence (P06756 31-992 limits assumed, chain 1 of 2): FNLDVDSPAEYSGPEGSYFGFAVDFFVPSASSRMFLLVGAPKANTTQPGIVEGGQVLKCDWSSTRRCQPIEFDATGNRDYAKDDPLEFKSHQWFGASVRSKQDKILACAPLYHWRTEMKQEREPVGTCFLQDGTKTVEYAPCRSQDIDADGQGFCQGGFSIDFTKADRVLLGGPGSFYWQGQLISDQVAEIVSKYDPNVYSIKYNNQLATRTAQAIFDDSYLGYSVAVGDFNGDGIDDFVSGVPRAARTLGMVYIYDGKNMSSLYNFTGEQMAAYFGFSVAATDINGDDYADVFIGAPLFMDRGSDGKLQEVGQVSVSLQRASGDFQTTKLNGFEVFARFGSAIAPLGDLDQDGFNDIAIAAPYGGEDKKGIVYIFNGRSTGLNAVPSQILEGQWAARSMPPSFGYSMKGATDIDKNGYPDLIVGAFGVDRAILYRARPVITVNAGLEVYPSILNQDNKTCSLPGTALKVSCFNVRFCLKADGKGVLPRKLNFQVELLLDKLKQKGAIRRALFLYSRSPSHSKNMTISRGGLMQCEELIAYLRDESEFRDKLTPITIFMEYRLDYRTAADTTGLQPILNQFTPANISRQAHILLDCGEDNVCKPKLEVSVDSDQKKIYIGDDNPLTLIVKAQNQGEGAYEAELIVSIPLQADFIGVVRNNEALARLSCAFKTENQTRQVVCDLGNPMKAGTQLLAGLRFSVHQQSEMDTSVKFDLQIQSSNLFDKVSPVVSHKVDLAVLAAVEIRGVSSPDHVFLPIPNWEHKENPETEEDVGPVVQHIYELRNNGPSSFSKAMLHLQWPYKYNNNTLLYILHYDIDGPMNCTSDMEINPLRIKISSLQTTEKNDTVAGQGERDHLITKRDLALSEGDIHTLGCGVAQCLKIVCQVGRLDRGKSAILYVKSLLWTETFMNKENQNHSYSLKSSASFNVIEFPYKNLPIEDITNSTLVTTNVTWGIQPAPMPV
T4 sequence (P05106 27-718 limits assumed, chain 2 of 2): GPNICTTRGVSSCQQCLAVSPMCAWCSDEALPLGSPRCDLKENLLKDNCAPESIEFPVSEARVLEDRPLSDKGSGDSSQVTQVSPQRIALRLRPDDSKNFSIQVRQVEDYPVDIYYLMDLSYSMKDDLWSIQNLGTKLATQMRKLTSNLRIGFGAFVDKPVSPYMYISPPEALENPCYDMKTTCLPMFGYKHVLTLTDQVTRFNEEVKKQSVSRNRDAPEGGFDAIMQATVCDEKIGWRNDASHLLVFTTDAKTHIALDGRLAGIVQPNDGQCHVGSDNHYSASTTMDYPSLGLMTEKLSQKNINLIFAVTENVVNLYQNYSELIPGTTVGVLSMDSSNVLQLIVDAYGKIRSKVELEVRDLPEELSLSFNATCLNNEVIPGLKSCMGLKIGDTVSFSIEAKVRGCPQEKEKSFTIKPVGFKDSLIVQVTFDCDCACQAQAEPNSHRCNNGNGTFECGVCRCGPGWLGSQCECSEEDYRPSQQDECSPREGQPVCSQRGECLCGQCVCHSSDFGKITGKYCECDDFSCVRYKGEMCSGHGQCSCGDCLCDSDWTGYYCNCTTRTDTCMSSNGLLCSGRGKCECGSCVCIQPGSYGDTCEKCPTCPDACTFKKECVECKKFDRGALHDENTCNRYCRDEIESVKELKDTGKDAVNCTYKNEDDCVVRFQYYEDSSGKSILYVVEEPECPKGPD

With SGLTEWLRWFNS (also: PEG(6)-FITC conjugated, site not given here, also called AXI-I-PEG-FITC; AXI-I-FITC) [AXI-I-PEG(6)-FITC], the results for the Kd in assay [1] and in assay [2] were 149 nM and ~1000 nM, respectively. Also, the binding result in assay [3] was “no binding (tested: 1.0 µM)”; in assay [5], “no binding”. In addition, the “EC50 (read off the curve)” value in assay [4] was ~1000 nM.
